Experimental findings from paper PMC6126716 are described below.

For the assay, the target named is human asialo-haptoglobin, phenotype 1-1 (Hp heterotetramer of two α1 and two β-subunits) (human) (UniProt P00738). Description: native MS.

For the substance “human hemoglobin holo-heterodimer (αHb and βHb) (from UniProt P69905 1-142; P68871 1-147) (complex)”, the stoichiometry N (Hb heterodimers per Hp heterotetramer) is 2.
